The values that follow come from patent publication US20250034269A1 (Hoffmann-La Roche, published 2025).

Test [1] concerns the target T1, human LTBR on cells (human, UniProt P36941 31-435).
T1 construct: also called recombinant human LTBR CHO cells; CHO-K1 cells overexpressing human LTBR
Nature of the test: flow cytometry on CHO-K1 cells overexpressing human LTBR, 1 h at 4 °C, PE-labelled anti-human-Fc, MFI normalized to baseline. (In general: Flow cytometry measures light scatter and fluorescence of single cells or particles in a stream.)

Test [2] concerns the target T2, murine LTBR on cells (mouse, UniProt P50284 31-415).
T2 construct: also called CHO-K1 cells overexpressing murine LTBR; NIH-3T3 cells
Nature of the test: flow cytometry on CHO-K1 cells overexpressing murine LTBR, 1 h at 4 °C, PE-labelled anti-human-Fc, MFI normalized to baseline.

Test [3] deals with T3, cynomolgus LTBR on CHO-K1 cells (cynomolgus, UniProt A0A2K5VGQ6 31-440).
T3 construct: whole, on cells; also called cyno LTBR on cells
The test can be described thus: flow cytometry on CHO-K1 cells overexpressing cynomolgus LTBR, 1 h at 4 °C, PE-labelled anti-human-Fc, MFI normalized to baseline.

B1: P1AE1079 (bispecific antibody, human IgG1, kappa, L234A L235A)
heavy 1: not shown
light: DIQMTQSPSSLSASVGDRVTITCKAGQDIKSYLSWYQQKPGKAPKLLIYYATRLADGVPSRFSGSGSGTDYTLTISSLQPEDFATYYCLQHGESPWTFGGGTKLEIKRTVAAPSVFIFPPSDEQLKSGTASVVCLLNNFYPREAKVQWKVDNALQSGNSQESVTEQDSKDSTYSLSSTLTLSKADYEKHKVYACEVTHQGLSSPVTKSFNRGEC
heavy 2: EVQLVESGGGLVKPGGSLRLSCAASGFTFSDYYMYWFRQAPGKGLEWVATISDGGSYTYYPDSVKGRFTISRDNAKNSLYLQMSSLRAEDTAVYYCAREENGNFYYFDYWGQGTTVTVSSASTKGPSVFPLAPSSKSTSGGTAALGCLVKDYFPEPVTVSWNSGALTSGVHTFPAVLQSSGLYSLSSVVTVPSSSLGTQTYICNVNHKPSNTKVDKKVEPKSCDKTHTCPPCPAPEAAGGPSVFLFPPKPKDTLMISRTPEVTCVVVDVSHEDPEVKFNWYVDGVEVHNAKTKPREEQYNSTYRVVSVLTVLHQDWLNGKEYKCKVSNKALGAPIEKTISKAKGQPREPQVCTLPPSRDELTKNQVSLSCAVKGFYPSDIAVEWESNGQPENNYKTTPPVLDSDGSFFLVSKLTVDKSRWQQGNVFSCSVMHEALHNHYTQKSLSLSPGGGGGSGGGGSGGGGSGGGGSEIVLTQSPGTLSLSPGERATLSCRASQSVTSSYLAWYQQKPGQAPRLLINVGSRRATGIPDRFSGSGSGTDFTLTISRLEPEDFAVYYCQQGIMLPPTFGQGTKVEIK
notes: 2+1 anti-LTBR (CBE11)/anti-FAP (4B9) human IgG1 PG LALA with C-terminal FAP VH (knob) and VL (hole) domains; also called P1AG1079
Regarding B1, the binding result is “binds” in test [1], “no binding (tested: about 130 nM)” in test [2] and “no binding (tested: about 130 nM)” in test [3].
